Laboratory results taken from patent US10359406B2, “Diagnosis and treatment of preeclampsia” (A1M Pharma AB, priority 2007, dated 2019).

B1: α1m: Recombinant human α1-microglobulin expressed in E. coli; small plasma and tissue protein, heme-binder and radical scavenger (protein, UniProt P02760 20-203, looked up)
Alpha-1-microglobulin: GPVPTPPDNIQVQENFNISRIYGKWYNLAIGSTCPWLKKIMDRMTVSTLVLGEGATEAEISMTSTRWRKGVCEETSGAYEKTDTDGKFLYHKSKWNITMESYVVHTNYDEYAIFLTKKFSRHHGPTITAKLYGRAPQLRETLLQDFRVVAQGVGIPEDSIFTMADRGECVPGEQEPEPILIPRV
modifications: Alpha-1-microglobulin

Assays:
K562 cells [1] = test: Scavenging of cell-bound heme from K562 cells (spectrophotometry, visual); assay type: cell-based, human; settings: cells preloaded with 10 μM heme 30 min; protein 2 or 10 μM, 2 h
Description: FIG. 18. Scavenging of cell heme by α1m. Human erythroleukemic cells (K562) were cultured with either buffer or 10 μM heme for 30 minutes, washed and resuspended in fresh culture medium. A: The cells were then incubated with α1m (2 or 10 μM) for 2 hours, after which time the culture medium was saved. The cells were washed and solubilized by suspending in a buffer containing 1% NP-40. The culture medium and cellsuspension were then analysed spectrophotometrically by reading the absorbance spectra (300-700 nm). B: The various cultures were also analysed visually. Cells were incubated with either buffer or 10 μM heme for 30 min (Step 1), washed and then incubated with buffer, 10 μM α1m or 10 μM AGP for 2 hours (Step 2), washed and solubilized as described above.
To study the mechanisms of the cytoprotective effect of α1m, we performed a series of experiments attempting to analyze the interactions between the protein and cell-bound heme. […] The culture media were saved, cells washed and solubilized, and both media and solubilized cells analyzed by spectrophotometry (FIG. 18A) and visually (FIG. 18B). Heme was seen as a strong brown-coloring of the cells and the typical absorbance spectrum with a non-distinct peak around 400 nm. […]

[2] = human blood plasma glycoprotein; read-out: Kd of heme binding; cited from earlier work
K562 cells [3] = test: Heme-induced cell lysis/death of K562 cells (propidium iodide, FACS); assay type: cell-based, human; settings: extracellularly added α1m 2, 5 or 10 μM; 200 μM heme, 4 h
Description: (§1) FIG. 16. A. Cell-protective properties of α1m against heme- and ROS-induced oxidation. K562 cells were labelled with the oxidation-sensitive probe H2DCFDA, washed, and incubated with α1m (2, 5 or 10 μM), AGP (2, 5 or 10 μM) or ascorbate (10 μM) prior to the addition of 10 μM heme. The cells were incubated for 2 h and analysed with FACS. B. K562 cells were cultured with α1m (2, 5 or 10 μM) or a control protein (α1-acid glycoprotein, AGP) (10 μM) prior to the addition of 200 μM heme and cultured 4 h. The cell suspension was collected, mixed with propidium iodide and analysed with FACS.
(§2) The anti-oxidation properties of α1m are illustrated in FIGS. 16 and 17. […] A possible mechanism for these actions may be the reductase properties of α1m, reducing the oxidants, the oxidation modifications, or both.

K562 cells [4] = test: Heme- and ROS-induced oxidation of K562 cells (H2DCFDA probe, FACS); assay type: cell-based, human; settings: extracellularly added α1m 2, 5 or 10 μM; 10 μM heme, 2 h
Description: as §1, §2

haemoglobin = test: Haemoglobin-α1m complex isolated from placenta tissue (anti-α1m affinity column, SDS-PAGE, Western blotting); assay type: binding, human; settings: 43-kDa band reacting with anti-α1m and anti-Hb-A; lost with mercaptoethanol
Description: FIG. 20 show SDS-PAGE and Western blotting of a haemoglobin-α1m complex isolated from placenta tissue. A placenta from a healthy donor was homogenized and centrifuged at 100,000 G for 60 min. The supernatant was applied to an anti-α1m Affigel column which was rinsed and eluted with 0.1 M glycine-HCl, pH 2.3. The eluate was separated by SDS-PAGE which was either stained with Coommassie (two left lanes) or transferred to PVDF membranes and blotted with anti-α1m or anti-Hb-A.
Molecules containing α1m were purified from placenta tissue as described [Berggård et al., 1999]. Approximately 200 g of an apparently normal term human placenta, taken within 3 hours after delivery, were homogenized in 200 ml of 50 mM Tris-HCl, pH 8.0, 0.25 M sucrose, 2 mM EDTA, pepstatin, 1 mg/l, antipain, 5 mg/l, and leupeptin, 10 mg/l, using a Potter-Elvehjem apparatus with a tight-fitting teflon pestle. The homogenate was centrifuged at 10,000 G for 10 min. This pellet was washed by repeatedly suspending 1:1 in the homogenization buffer and recentrifugation at 10,000 G for 10 min. The supernatant was centrifuged at 100,000 G for 90 min. This pellet, containing the placenta membranes and membrane-bound proteins, was dissolved in 40 ml homogenization buffer also containing 0.5% (w/v) Nonidet P-40 (BDH Chemicals) and centrifuged at 20,000 G for 30 min to remove particulate material. […]

collagen = test: Heme-induced oxidation of collagen/LDL; carbonyl groups measured by ELISA; assay type: biochemical
Description: FIG. 17. Reduction of carbonyl groups on oxidized collagen by α1m. Collagen, coated to microtiter plates, was oxidized by incubation with 50 μM heme for 17 h. After washing, 0.1, 0.3 or 1 μM α1m, ovalbumin or ascorbate were added, and incubated for 2 h. Carbonyl groups were measured by ELISA. Each column represents the mean of triplicates+/−SE
as §2

| Molecule | effect on cell-bound heme (K562 cells [1]) | Kd [2] [pM] | cell lysis (cell death) induced by heme (K562 cells [3]) | oxidation of cell cytosol and cytosol protein thiol groups by heme and ROS (K562 cells [4]) | binding of haemoglobin in placenta tissue (haemoglobin) | heme- and ROS-induced oxidation of collagen, LDL, membrane lipids and whole cells (collagen) | removal of pre-formed oxidation products (carbonyl groups) on collagen and LDL (collagen; collagen oxidized with 50 μM heme 17 h, 0.1, 0.3 or 1 μM α1m, 2 h) |
| --- | --- | --- | --- | --- | --- | --- | --- |
| AGP: control protein (α1-acid glycoprotein), control lipocalin [reference compound] | did not have any effect | – | – | – | – | – | – |
| Hemopexin: glycoprotein (60 kDa) found in human blood plasma which eliminates free heme by binding it strongly | – | ~1 | – | – | – | – | – |
| B1 | almost completely removed from the cells | – | inhibits the cell lysis | inhibit the oxidation | haemoglobin is bound by α1m | inhibited | removed pre-formed oxidation products |
